In US20030148956A1 (PROCTER AND GAMBLE, published 2003):
Ends that are not written are not given here.

Experiments:
[1] = molecular target: CRF1R; test: cell-based or functional assay
[2] = molecular target: T1, CRF2R; test: cell-based or functional assay
T1 sequence (Q13324 whole entry, species assumed, looked up): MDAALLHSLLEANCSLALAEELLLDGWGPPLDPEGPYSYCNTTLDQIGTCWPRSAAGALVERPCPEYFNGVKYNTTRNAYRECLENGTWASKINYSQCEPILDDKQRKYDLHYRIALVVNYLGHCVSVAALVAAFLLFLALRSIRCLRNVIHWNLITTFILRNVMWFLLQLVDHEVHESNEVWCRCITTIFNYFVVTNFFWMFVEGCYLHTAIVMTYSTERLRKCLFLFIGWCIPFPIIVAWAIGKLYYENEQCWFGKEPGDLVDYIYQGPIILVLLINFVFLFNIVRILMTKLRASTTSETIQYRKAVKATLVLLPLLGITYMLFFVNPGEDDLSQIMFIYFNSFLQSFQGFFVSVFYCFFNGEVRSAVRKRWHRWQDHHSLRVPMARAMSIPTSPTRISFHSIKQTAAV

Row | Binder | CRF1R EC50 [1] [µM] | CRF1R Emax [1] [%] | CRF2R EC50 [2] [µM] | CRF2R Emax [2] [%]
1 | DNPSLSIDLPFYLLRTLLELARTQSQRERAEQNAIIFASV-NH2 [SEQ ID NO 183] | 0.415 | 57.5 | 0.00793 | 100
2 | ZGPPISIDLPHWLLRKMIEIEKQEKEKQQAANNRLLLDTI (C-terminal amide) [SEQ ID NO 186] | 0.323 | 100 | 0.0251 | 100
3 | ZGPPISIDLPYLLLRKMIEIEKQEKEKQQAANNRLLLDTI (C-terminal amide) [SEQ ID NO 203] | 0.0762 | 86 | 0.0052 | 94
4 | ZGPPISIDLPIWLLRKMIEIEKQEKEKQQAANNRLLLDTI (C-terminal amide) [SEQ ID NO 192] | 0.562 | 99 | 0.0668 | 97
5 | ZGPPISIDLPLFLLRKMIEIEKQEKEKQQAANNRLLLDTI (C-terminal amide) [SEQ ID NO 195] | 0.103 | 93 | 0.0188 | –
6 | ZGPPISIDLPLVLLRKMIEIEKQEKEKQQAANNRLLLDTI (C-terminal amide) [SEQ ID NO 193] | 0.266 | 95 | 0.0101 | 97
7 | ZGPPISIDLPHHLLRKMIEIEKQEKEKQQAANNRLLLDTI (C-terminal amide) [SEQ ID NO 205] | 0.127 | 88 | 0.025 | 93
8 | ZGPPISIDLPYILLRKMIEIEKQEKEKQQAANNRLLLDTI (C-terminal amide) [SEQ ID NO 204] | 0.0321 | 74 | 0.0036 | 93
9 | ZGPPISIDLPWFLLRKMIEIEKQEKEKQQAANNRLLLDTI (C-terminal amide) [SEQ ID NO 187] | 0.0316 | 72 | 0.0103 | 100
10 | ZGPPISIDLPQILLRKMIEIEKQEKEKQQAANNRLLLDTI (C-terminal amide) [SEQ ID NO 199] | 0.707 | 93 | 0.0085 | 92
11 | ZGPPISIDLPLILLRKMIEIEKQEKEKQQAANNRLLLDTI (C-terminal amide) [SEQ ID NO 194] | 0.106 | 94 | 0.005 | 96
12 | DNPSLSIDLPTYLLRTLLELARTQSQRERAEQNAIIFASV-NH2 [SEQ ID NO 173] | 1 | 6.05 | 0.1 | 65.2

Next, values leading:

Row | CRF1R EC50 [1] [µM] | CRF1R Emax [1] [%] | CRF2R EC50 [2] [µM] | CRF2R Emax [2] [%] | Binder
13 | 0.486 | 77.3 | 0.00372 | 96.5 | DNPSLSIDLPFFLLRTLLELARTQSQRERAEQNAIIFASV-NH2 [SEQ ID NO 184]
14 | 0.163 | 96 | 0.0146 | 100 | ZGPPISIDLPLLLLRKMIEIEKQEKEKQQAANNRLLLDTI (C-terminal amide) [SEQ ID NO 188]
15 | 0.189 | 99 | 0.0088 | 100 | ZGPPISIDLPYTLLRKMIEIEKQEKEKQQAANNRLLLDTI (C-terminal amide) [SEQ ID NO 200]
16 | 0.447 | 96 | 0.0277 | 97 | ZGPPISIDLPQLLLRKMIEIEKQEKEKQQAANNRLLLDTI (C-terminal amide) [SEQ ID NO 196]
17 | 0.0996 | 80 | 0.005 | 100 | ZGPPISIDLPYVLLRKMIEIEKQEKEKQQAANNRLLLDTI (C-terminal amide) [SEQ ID NO 201]
18 | 0.697 | 97 | 0.0305 | 97 | ZGPPISIDLPAHLLRKMIEIEKQEKEKQQAANNRLLLDTI (C-terminal amide) [SEQ ID NO 206]
19 | 1 | 34.8 | 0.00542 | 92.2 | DNPSLSIDLPLILLRTLLELARTQSQRERAEQNAIIFASV-NH2 [SEQ ID NO 175]
